Assays:
Format in all cases: biochemical, Saccharomyces cerevisiae
[1] = substrate: N[C@@H](CS)C(=O)O; assay: CBS H2S production assay (AzMC fluorometric), tScCBS; conditions: other: tScCBS, Cys + Hcy, pH 8.6, 37.0 °C
Experimental: CBS H2S production assay. H2S-producing activity of CBS, utilizing Cys and Hcy, was determined using a fluorometric assay employing the H2S-selective fluorescent probe 7-azido-4-methylcoumarin (AzMC) as described previously. The reaction mixture in a total volume of 200 µL contained 50 mM Tris–HCl pH 8.6, 5 μM PLP, 2 mM Hcy, 10 μM AzMC and 500 ng tScCBS or HsCBS. The plate was incubated for 10 min at 37°C and the enzymatic activity was triggered by adding 0–50 mM Cys. The fluorescence of the mixtures at 450 nm (excited at 365 nm) was followed for 2 h at 37°C. All measurements were performed in triplicates using Tecan Infinite 200 PRO microplate reader. Kinetic data were analyzed using GraphPad Prism software.

[2] = substrate: N[C@@H](CO)C(=O)O; assay: CBL-LDH coupled-coupled CBS assay, tScCBS; conditions: other: tScCBS, substrate varied with 2 mM Hcy, pH 8.9
Experimental: (§1) CBS coupled-coupled assay. CBS canonical activity utilizing Ser and Hcy was determined using cystathionine beta-lyase (CBL) and lactate-dehydrogenase (LDH) coupled-coupled assay as described previously with a few modifications. Native L-LDH from rabbit muscle was purchased from Sigma (catalog no. L2500) and recombinant CBL was purchased from Creative Enzymes (catalog no. NATE-1146). In a final volume of 150 µL, the reaction mixture contained 50 mM Tris–HCl pH 8.9, 20 µM PLP, 500 µM NADH, 1.3 µM LDH, 0.1 µM CBL, 0–20 mM Ser (or 0–50 mM Cys) and 500 ng of tScCBS or HsCBS. Assays with HsCBS were carried out in the absence or presence of 500 µM CBS allosteric activator S-adenosylmethionine (SAM). The reaction was triggered by the addition of 2 mM Hcy and the oxidation of NADH to NAD^+ was followed by monitoring the decrease in absorbance at 340 nm over time (ε340 = 6220 M^−1.cm^−1). […] All measurements were performed in triplicates using Tecan Infinite 200 PRO microplate reader. Kinetic data were analyzed using GraphPad Prism software.

[3] = substrate: N[C@@H](CS)C(=O)O; assay: CBL-LDH coupled-coupled CBS assay, tScCBS; conditions: other: tScCBS, substrate varied with 2 mM Hcy, pH 8.9
Experimental: as §1

B1: tScCBS (Saccharomyces cerevisiae S288C) (protein)
chain: MTKSEQQADSRHNVIDLVGNTPLIALKKLPKALGIKPQIYAKLELYNPGGSIKDRIAKSMVEEAEASGRIHPSRSTLIEPTSGNTGIGLALIGAIKGYRTIITLPEKMSNEKVSVLKALGAEIIRTPTAAAWDSPESHIGVAKKLEKEIPGAVILDQYNNMMNPEAHYFGTGREIQRQLEDLNLFDNLRAVVAGAGTGGTISGISKYLKEQNDKIQIVGADPFGSILAQPENLNKTDITDYKVEGIGYDFVPQVLDRKLIDVWYKTDDKPSFKYARQLISNEGVLVGGSSGSAFTAVVKYCEDHPELTEDDVIVAIFPDSIRSYLTKFVDDEWLKKNNLWDDDVL
notes: 6xHis (C); made in house
[1]
  Km: 6700 ± 1500 µM
  kcat: 3.4 ± 0.3 s⁻¹
  kcat/Km: 510 M⁻¹ s⁻¹
[2]
  Km: 2000 ± 400 µM
  Vmax: 4.18 µmol/min/mg
  kcat: 2.7 ± 0.1 s⁻¹
  kcat/Km: 1340 M⁻¹ s⁻¹
[3]
  Km: 2500 ± 200 µM
  kcat: 1.7 ± 0.1 s⁻¹
  kcat/Km: 690 M⁻¹ s⁻¹

Reference: article PMC9304066, “H2S biogenesis by cystathionine beta-synthase: mechanism of inhibition by aminooxyacetic acid and unexpected role of serine” (Cellular and Molecular Life Sciences: CMLS, 2022)
